The numbers were not newly measured in patent publication US12258605B2, “Alkane oxidation by modified hydroxylases” (The California Institute of Technology, priority 2005, dated 2025), which cites them from elsewhere.

The conditions of data set [1]: myristate; cited from earlier work.
For data set [2] the following is noted: palmitic acid; cited from earlier work.

B1: Wild-type BM-3: wild-type cytochrome P450 BM-3 from Bacillus megaterium, SEQ ID NO:1 (protein, listed as Bacillus megaterium)
chain: TIKEMPQPKTFGELKNLPLLNTDKPVQALMKIADELGEIFKFEAPGRVTRYLSSQRLIKEACDESRFDKNLSQALKFVRDFAGDGLFTSWTHEKNWKKAHNILLPSFSQQAMKGYHAMMVDIAVQLVQKWERLNADEHIEVPEDMTRLTLDTIGLCGFNYRFNSFYRDQPHPFITSMVRALDEAMNKLQRANPDDPAYDENKRQFQEDIKVMNDLVDKIIADRKASGEQSDDLLTHMLNGKDPETGEPLDDENIRYQIITFLIAGHETTSGLLSFALYFLVKNPHVLQKAAEEAARVLVDPVPSYKQVKQLKYVGMVLNEALRLWPTAPAFSLYAKEDTVLGGEYPLEKGDELMVLIPQLHRDKTIWGDDVEEFRPERFENPSAIPQHAFKPFGNGQRACIGQQFALHEATLVLGMMLKHFDFEDHTNYELDIKETLTLKPEGFVVKAKSKKIPLGGIPSPSTEQSAKKVRKKAENAHNTPLLVLYGSNMGTAEGTARDLADIAMSKGFAPQVATLDSHAGNLPREGAVLIVTASYNGHPPDNAKQFVDWLDQASADEVKGVRYSVFGCGDKNWATTYQKVPAFIDETLAAKGAENIADRGEADASDDFEGTYEEWREHMWSDVAAYFNLDIENSEDNKSTLSLQFVDSAADMPLAKMHGAFSTNVVASKELQQPGSARSTRHLEIELPKEASYQEGDHLGVIPRNYEGIVNRVTARFGLDASQQIRLEAEEEKLAHLPLAKTVSVEELLQYVELQDPVTRTQLRAMAAKTVCPPHKVELEALLEKQAYKEQVLAKRLTMLELLEKYPACEMKFSEFIALLPSIRPRYYSISSSPRVDEKQASITVSVVSGEAWSGYGEYKGIASNYLAELQEGDTITCFISTPQSEFTLPKDPETPLIMVGPGTGVAPFRGFVQARKQLKEQGQSLGEAHLYFGCRSPHEDYLYQEELENAQSEGIITLHTAFSRMPNQPKTYVQHVMEQDGKKLIELLDQGAHFYICGDGSQMAPAVEATLMKSYADVHQVSEADARLWLQQLEEKGRYAKDVWAG
As to B1, in data set [1], the Coupling efficiency is listed as 88%. The “hydroxylation at the ω-2 position” value in data set [2] is recorded as 48%.
